Data as given in patent CN102731650A (SICHUAN HUIYU PHARMACEUTICAL CO LTD, dated 2012).

Target: T1, SP62 (biotin-labelled peptide containing the 2F5 epitope sequence) (HIV-1, biotin-labelled (position not given))
T1 construct: The results speak of the 'MPER peptide' or 'peptide'; also called 2F5多肽; gp41 MPER多肽
T1 peptide: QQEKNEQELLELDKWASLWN
Assay: ELISA

B1: A2 (light-chain shuffled clone, Fab on phage) (Fab, V domains shown)
VH: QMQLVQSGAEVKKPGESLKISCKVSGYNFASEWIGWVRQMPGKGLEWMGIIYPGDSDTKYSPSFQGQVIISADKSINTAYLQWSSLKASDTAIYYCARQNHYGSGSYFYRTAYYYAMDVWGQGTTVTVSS
VL: DIQLTQSPSSLSASLGDKVTITCRASQHIKKYLNWYQQKPGKAPKLLIYGALNLQSGVPSRFSGRGSGTDFTLTISSLQPEDFATYYCQQSYSTPFTFGPGTKVDIKR
binding result: binds
